Patent US20210024903A1 (Pfizer, published 2021)

B1: B9-30 (antibody, V domains shown)
VH: QVQLQQPGAEVVKPGAPVKLSCKASGYPFTNYWMNWVKQRPGRGLEWIGRIDPSNSEIYYNQKFKDKATLTVDKSSSTAYIQLSSLTSEDSAVYYCASGHYGSIFAYWGQGTTLTVSS
VL: VQITQSPSYLAASPGETITINCRASKSISKYLAWYQEKPGKTNKLLIYSGSTLQSGIPSRFSGSRSGTDFTLIISSLEPEDSAMYYCQQHNEYPLTFGAGTKLELKR
B2: B9-30 mAb (antibody, V domains shown)
VH: B1 VH
VL: B1 VL

Assays:
[1] = target: Commercial, Control Toxin B wt (List Biologicals) (Clostridium difficile, UniProt P18177 2-2366); experiment: dot blot, non-denaturing
[2] = target: wild-type C. difficile toxin B (TcdB wt, from List Bio) (C. difficile strain 630, UniProt P18177 2-2366); experiment: dot blot, nondenaturing
Sequence of wild-type C. difficile toxin B (TcdB wt, from List Bio) (P18177 2-2366 limits assumed): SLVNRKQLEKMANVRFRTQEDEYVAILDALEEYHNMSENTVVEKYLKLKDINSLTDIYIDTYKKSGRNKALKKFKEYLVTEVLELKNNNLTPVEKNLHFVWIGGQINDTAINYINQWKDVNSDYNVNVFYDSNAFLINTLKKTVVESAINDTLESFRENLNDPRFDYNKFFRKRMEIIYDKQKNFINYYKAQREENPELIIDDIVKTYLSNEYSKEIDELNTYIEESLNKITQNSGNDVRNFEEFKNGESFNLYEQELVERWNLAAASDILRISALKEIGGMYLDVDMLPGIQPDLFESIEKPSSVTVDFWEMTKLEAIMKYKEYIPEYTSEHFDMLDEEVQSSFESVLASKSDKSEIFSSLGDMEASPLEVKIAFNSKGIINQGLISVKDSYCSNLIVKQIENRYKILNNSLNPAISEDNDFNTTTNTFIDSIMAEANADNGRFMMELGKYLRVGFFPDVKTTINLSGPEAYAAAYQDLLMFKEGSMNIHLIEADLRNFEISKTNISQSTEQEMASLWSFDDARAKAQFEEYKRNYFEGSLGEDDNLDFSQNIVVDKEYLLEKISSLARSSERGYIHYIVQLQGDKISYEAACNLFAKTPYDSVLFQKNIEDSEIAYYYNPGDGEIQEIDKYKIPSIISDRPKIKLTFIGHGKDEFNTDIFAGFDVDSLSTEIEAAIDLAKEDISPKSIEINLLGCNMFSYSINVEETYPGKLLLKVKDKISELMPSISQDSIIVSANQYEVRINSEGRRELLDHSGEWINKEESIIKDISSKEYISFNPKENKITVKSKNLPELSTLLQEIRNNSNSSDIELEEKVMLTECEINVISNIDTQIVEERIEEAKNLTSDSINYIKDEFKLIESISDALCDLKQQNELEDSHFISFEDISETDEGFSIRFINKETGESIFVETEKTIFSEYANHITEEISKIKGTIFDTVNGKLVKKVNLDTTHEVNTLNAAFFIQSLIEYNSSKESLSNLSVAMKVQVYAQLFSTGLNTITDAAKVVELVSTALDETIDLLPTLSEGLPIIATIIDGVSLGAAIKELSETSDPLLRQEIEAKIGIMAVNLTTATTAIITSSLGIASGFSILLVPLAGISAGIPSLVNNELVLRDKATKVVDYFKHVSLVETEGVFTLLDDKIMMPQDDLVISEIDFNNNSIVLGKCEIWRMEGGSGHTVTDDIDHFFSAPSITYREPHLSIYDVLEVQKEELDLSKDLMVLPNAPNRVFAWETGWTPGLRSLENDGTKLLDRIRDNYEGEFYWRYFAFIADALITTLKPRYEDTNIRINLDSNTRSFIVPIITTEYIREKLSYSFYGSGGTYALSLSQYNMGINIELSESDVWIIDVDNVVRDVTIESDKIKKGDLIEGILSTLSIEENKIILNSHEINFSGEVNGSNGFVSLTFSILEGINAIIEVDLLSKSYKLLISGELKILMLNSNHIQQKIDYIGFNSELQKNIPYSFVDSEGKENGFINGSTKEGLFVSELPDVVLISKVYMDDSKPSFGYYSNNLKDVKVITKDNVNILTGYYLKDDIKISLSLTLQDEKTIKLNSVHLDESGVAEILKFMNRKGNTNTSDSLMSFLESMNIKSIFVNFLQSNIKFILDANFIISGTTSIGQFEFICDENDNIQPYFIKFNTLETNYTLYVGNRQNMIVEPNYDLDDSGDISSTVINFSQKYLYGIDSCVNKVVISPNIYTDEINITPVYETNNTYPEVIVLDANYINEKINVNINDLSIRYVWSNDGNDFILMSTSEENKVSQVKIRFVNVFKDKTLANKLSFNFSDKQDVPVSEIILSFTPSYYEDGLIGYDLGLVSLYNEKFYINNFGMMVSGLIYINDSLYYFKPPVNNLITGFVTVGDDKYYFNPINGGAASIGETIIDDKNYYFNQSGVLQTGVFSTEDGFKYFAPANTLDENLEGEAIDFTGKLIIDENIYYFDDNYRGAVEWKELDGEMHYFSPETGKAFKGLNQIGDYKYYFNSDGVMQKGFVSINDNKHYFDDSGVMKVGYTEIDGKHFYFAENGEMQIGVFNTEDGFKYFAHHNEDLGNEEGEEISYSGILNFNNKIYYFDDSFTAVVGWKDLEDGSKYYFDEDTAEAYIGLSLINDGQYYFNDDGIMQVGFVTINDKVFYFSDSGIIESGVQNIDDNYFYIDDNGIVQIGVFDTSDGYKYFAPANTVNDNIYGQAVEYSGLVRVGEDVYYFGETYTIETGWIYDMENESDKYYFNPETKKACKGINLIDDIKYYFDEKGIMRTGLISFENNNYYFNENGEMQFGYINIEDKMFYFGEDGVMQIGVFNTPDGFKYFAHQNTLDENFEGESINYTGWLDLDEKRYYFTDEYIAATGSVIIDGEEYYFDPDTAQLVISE

Sequence of Commercial, Control Toxin B wt (List Biologicals) (P18177 2-2366 limits assumed): as above

Row | Binder | binding result [1] | binding result [2]
1 | B1 | binds | 
2 | B2 |  | binds
